{"source": "the RNAGym collection of RNA variant scans (doi:10.1073/pnas.2313332121)", "parents": {"B1": {"name": "TPR t1 (parent)", "chain": "GACCAAUCUGCCCUCAGAGCUCGAGAACAUCUUCGGAUGCAGAGGAGGCAGGCUUCGGUGGCGCGAUAGCGCCAACGUCCUCAACCUCCAAUGCAUCCCACCACAUGAUGAUGCCUGAAGAGCCUUGGUUUUUUG"}}}
{"variants_of": "B1", "assay": "polymerase ribozyme fitness, log enrichment relative to wild type (log ratio); higher = more active; in vitro selection for triplet polymerase activity", "in_short": "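Fitness is a logarithmic measure of how a genotype enriched relative to the wild type, with replicate averages weighted by inverse variance. The logarithm uses base 2, and enrichment came from Illumina sequencing of input and output libraries. Those libraries were PCR-built, transcribed mutants of each subunit of a heterodimeric triplet polymerase ribozyme, passed through one triplicate in vitro selection round that included frozen incubation at −7 °C, gel excision of extended constructs and streptavidin-bead capture. Genotypes were kept only if they had ≥10 input reads and ≥1 read per output.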"}
{"variant": "A29C C73U U96A", "polymerase ribozyme fitness (log ratio)": -5.54}
{"variant": "A27U G60C", "polymerase ribozyme fitness (log ratio)": -3.62}
{"variant": "C28U G39A U54C C79A", "polymerase ribozyme fitness (log ratio)": -4.8}
{"variant": "C28G C94A", "polymerase ribozyme fitness (log ratio)": -4.49}
{"variant": "C28A C80U A111G", "polymerase ribozyme fitness (log ratio)": -5.64}
{"variant": "C28G C124G", "polymerase ribozyme fitness (log ratio)": -0.979}
{"variant": "C28G C70A A90G G117U", "polymerase ribozyme fitness (log ratio)": -5.76}
{"variant": "C28U A29U G45C G61A", "polymerase ribozyme fitness (log ratio)": -3.76}
{"variant": "C28G G45U", "polymerase ribozyme fitness (log ratio)": -4.17}
{"variant": "C28G G47C", "polymerase ribozyme fitness (log ratio)": -3.69}
{"variant": "A29C U55G G60U A75U", "polymerase ribozyme fitness (log ratio)": -2.08}
{"variant": "C28U G71U A83U C86G C123G", "polymerase ribozyme fitness (log ratio)": -2.39}
{"variant": "C28U A121U", "polymerase ribozyme fitness (log ratio)": 0.361}
{"variant": "C28A G127C", "polymerase ribozyme fitness (log ratio)": -5.95}
{"variant": "C28G A50C U87A", "polymerase ribozyme fitness (log ratio)": -3.39}
{"variant": "C28G G110A", "polymerase ribozyme fitness (log ratio)": -1.49}
{"variant": "C28U G47U C56U", "polymerase ribozyme fitness (log ratio)": -3.24}
{"variant": "C28U C88U", "polymerase ribozyme fitness (log ratio)": -1.61}
{"variant": "C28U G117U", "polymerase ribozyme fitness (log ratio)": -3.99}
{"variant": "C28U G117C", "polymerase ribozyme fitness (log ratio)": -6}
{"variant": "A29G C40A C97U G113C", "polymerase ribozyme fitness (log ratio)": -4.13}
{"variant": "C28A C73U", "polymerase ribozyme fitness (log ratio)": -3.04}
{"variant": "A27U G35A C49U C88A A90G C98A U109A", "polymerase ribozyme fitness (log ratio)": -4.79}
{"variant": "C28G C72U", "polymerase ribozyme fitness (log ratio)": -3.07}
{"variant": "C28A G117A", "polymerase ribozyme fitness (log ratio)": -4.5}
{"variant": "C28A A74C", "polymerase ribozyme fitness (log ratio)": -4.96}
{"variant": "C28A C64G A111U C115G", "polymerase ribozyme fitness (log ratio)": -6.15}
{"variant": "C28A A75G C86G C123U", "polymerase ribozyme fitness (log ratio)": -5.57}
{"variant": "C28U G47U G93A", "polymerase ribozyme fitness (log ratio)": -5.35}
{"variant": "C28A C72U A100C G120A", "polymerase ribozyme fitness (log ratio)": -4.36}
{"variant": "C28G C40G G48U C53U", "polymerase ribozyme fitness (log ratio)": -3.75}
{"variant": "C28G C56G G61A G77A", "polymerase ribozyme fitness (log ratio)": -2.42}
{"variant": "A29G C62U A118U G120C", "polymerase ribozyme fitness (log ratio)": -1.4}
{"variant": "A27U G47A C49U U96A A119U", "polymerase ribozyme fitness (log ratio)": -5.56}
{"variant": "C28U A43U U59G C73U", "polymerase ribozyme fitness (log ratio)": -6.04}
{"variant": "C28G G63A A84C A121U", "polymerase ribozyme fitness (log ratio)": -3.21}
{"variant": "A29C C53G U133G", "polymerase ribozyme fitness (log ratio)": -4.74}
{"variant": "C28U G113U", "polymerase ribozyme fitness (log ratio)": -4.02}
{"variant": "C28U C73G", "polymerase ribozyme fitness (log ratio)": -2.44}
{"variant": "C28U C73U", "polymerase ribozyme fitness (log ratio)": -1.11}
{"variant": "C28G U32C G69C U78C C86G G117U C123U", "polymerase ribozyme fitness (log ratio)": -7.36}
{"variant": "A27U U54C G61U G107C U109C G110C", "polymerase ribozyme fitness (log ratio)": -7.69}
{"variant": "C28U C123A", "polymerase ribozyme fitness (log ratio)": -1.91}
{"variant": "C28G A46G G120A U130A", "polymerase ribozyme fitness (log ratio)": -2.51}
{"variant": "C28U C53G U59G", "polymerase ribozyme fitness (log ratio)": -2.35}
{"variant": "A27U U54A C115A", "polymerase ribozyme fitness (log ratio)": -3.07}
{"variant": "A29G C62U", "polymerase ribozyme fitness (log ratio)": -1.68}
{"variant": "C28G G57C A83C C123A", "polymerase ribozyme fitness (log ratio)": -2.8}
{"variant": "A29G A91C", "polymerase ribozyme fitness (log ratio)": -1.57}
{"variant": "C28U U55C U59C", "polymerase ribozyme fitness (log ratio)": -3.17}
{"variant": "A29C U33C U55A C86A C124A", "polymerase ribozyme fitness (log ratio)": -6.12}
{"variant": "C28G U32C G51U C79G", "polymerase ribozyme fitness (log ratio)": -5.29}
{"variant": "A29C C40U A41U G58C G71U C104U U129A", "polymerase ribozyme fitness (log ratio)": -6.05}
{"variant": "A27U G69U C101A", "polymerase ribozyme fitness (log ratio)": -2.96}
{"variant": "C28U C64A A95G C115A U129C U134A", "polymerase ribozyme fitness (log ratio)": -4.91}
{"variant": "C28U C56G G57C", "polymerase ribozyme fitness (log ratio)": -2.34}
{"variant": "A29G C56G C62A", "polymerase ribozyme fitness (log ratio)": -4.43}
{"variant": "C28U A43C", "polymerase ribozyme fitness (log ratio)": -4.69}
{"variant": "C28U G61U U92C", "polymerase ribozyme fitness (log ratio)": -2.53}
{"variant": "A29C G52U G63C", "polymerase ribozyme fitness (log ratio)": -2.49}
{"variant": "C28A A43G G51U A90G G110A", "polymerase ribozyme fitness (log ratio)": -4.93}
{"variant": "C28G C56U C80U", "polymerase ribozyme fitness (log ratio)": -4.97}
{"variant": "A29G A50U C70G G113A", "polymerase ribozyme fitness (log ratio)": -5.1}
{"variant": "C28U U112A", "polymerase ribozyme fitness (log ratio)": -1.56}
{"variant": "C28U U112G", "polymerase ribozyme fitness (log ratio)": -1.97}
{"variant": "C28U U112C", "polymerase ribozyme fitness (log ratio)": 0.129}
{"variant": "A29G A41G C56A G61A C124A", "polymerase ribozyme fitness (log ratio)": -1.77}
{"variant": "C28G U59A", "polymerase ribozyme fitness (log ratio)": -3.18}
{"variant": "A29C U130C", "polymerase ribozyme fitness (log ratio)": -2.27}
{"variant": "A29C G69U G77U", "polymerase ribozyme fitness (log ratio)": -2.24}
{"variant": "A29C U54C A84U G120C", "polymerase ribozyme fitness (log ratio)": -2.27}
{"variant": "A29G A37C G45C", "polymerase ribozyme fitness (log ratio)": -3.58}
{"variant": "C28U G42U C49G G69U U126G U130A", "polymerase ribozyme fitness (log ratio)": -6.32}
{"variant": "C28U G58C G113C U132C", "polymerase ribozyme fitness (log ratio)": -4.51}
{"variant": "A27U U96A", "polymerase ribozyme fitness (log ratio)": -4.07}
{"variant": "A27U G120U", "polymerase ribozyme fitness (log ratio)": -2.65}
{"variant": "A27U G120A", "polymerase ribozyme fitness (log ratio)": -1.65}
{"variant": "C28A G39U C64U C104A A119G", "polymerase ribozyme fitness (log ratio)": -5.82}
{"variant": "A27U G47U C86U G110C", "polymerase ribozyme fitness (log ratio)": -6.45}
{"variant": "A29C G47U G60C C97U", "polymerase ribozyme fitness (log ratio)": -6}
{"variant": "C28U A46U A74U", "polymerase ribozyme fitness (log ratio)": -3.5}
{"variant": "A29G C72A G113A G128A", "polymerase ribozyme fitness (log ratio)": -2.62}
{"variant": "C28G U32G C62A A121C", "polymerase ribozyme fitness (log ratio)": -6.19}
